# From PMC10030575, “The IgV domain of the poliovirus receptor alone is immunosuppressive and binds to its receptors with comparable affinity” (Scientific Reports, 2023)
# Read-outs that look alike come from different tables or passages of the source.
# T1: recombinant mouse CD226-his (mouse, UniProt Q8K4F0 19-254)
# T1 construct: mouse CD226 (DNAM1), recombinant; also called mCD226-his; mCD226; source: bought: SinoBiological (50232-M08H)
# T1 sequence (looked up): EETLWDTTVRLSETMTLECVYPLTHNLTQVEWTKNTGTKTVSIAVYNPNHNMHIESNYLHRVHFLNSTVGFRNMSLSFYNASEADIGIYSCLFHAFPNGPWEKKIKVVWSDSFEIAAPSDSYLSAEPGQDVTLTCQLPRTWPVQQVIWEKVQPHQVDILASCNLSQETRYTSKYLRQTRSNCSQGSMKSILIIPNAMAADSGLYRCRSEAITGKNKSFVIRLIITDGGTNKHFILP
# T2: recombinant mouse CD96-his (mouse, UniProt Q3U0X8 22-536)
# T2 construct: mouse CD96 (TACTILE), recombinant; also called mCD96-his; mCD96; source: bought: Biolegend (788806)
# T2 sequence (looked up): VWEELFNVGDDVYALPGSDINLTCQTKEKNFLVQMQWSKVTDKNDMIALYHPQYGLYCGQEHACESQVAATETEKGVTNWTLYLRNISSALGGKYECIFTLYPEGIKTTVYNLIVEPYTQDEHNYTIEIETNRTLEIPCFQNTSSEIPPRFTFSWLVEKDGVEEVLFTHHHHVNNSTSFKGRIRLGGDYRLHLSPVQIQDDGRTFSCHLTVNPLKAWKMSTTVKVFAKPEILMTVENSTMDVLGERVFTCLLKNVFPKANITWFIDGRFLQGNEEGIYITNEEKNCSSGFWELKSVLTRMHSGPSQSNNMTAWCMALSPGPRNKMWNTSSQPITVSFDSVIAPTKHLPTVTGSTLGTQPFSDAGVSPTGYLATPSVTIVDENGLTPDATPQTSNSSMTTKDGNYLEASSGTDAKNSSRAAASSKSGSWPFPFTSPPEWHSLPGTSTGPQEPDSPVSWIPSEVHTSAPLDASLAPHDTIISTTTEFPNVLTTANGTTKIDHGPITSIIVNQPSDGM
# T3: recombinant mouse TIGIT-Fc-his (mouse, UniProt P86176 29-148)
# T3 construct: mouse TIGIT (T-cell immunoglobulin and ITIM domain), recombinant; also called mTIGIT-Fc-his; mTIGIT; source: bought: Biolegend (771808)
# T3 sequence (looked up): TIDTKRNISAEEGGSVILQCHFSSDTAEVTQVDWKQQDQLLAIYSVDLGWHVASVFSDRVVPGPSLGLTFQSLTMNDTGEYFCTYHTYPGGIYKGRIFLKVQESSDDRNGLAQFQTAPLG
# B1: vdPVR-Fc (IgV-domain PVR-Fc) (Fc fusion, mouse, UniProt Q8K094 29-147, looked up)
# chain: DIRVLVPYNSTGVLGGSTTLHCSLTSNENVTITQITWMKKDSGGSHALVAVFHPKKGPNIKEPERVKFLAAQQDLRNASLAISNLSVEDEGIYECQIATFPRGSRSTNAWLKVQARPKN
# notes: murine PVR (poliovirus receptor, CD155), IgV domain of the extracellular domain, residues 29-147 of NP_081790.1; An Ig-kappa leader at the 5' end drives secretion; Migrates as a dimer (~94 kDa) without reducing agent; also called minimal murine PVR-Fc fusion construct; source: Expi293F cells, secreted, purified (protein A); not shown: Fc (human IgG1; P01857 residues 100-330; joined by linker …)
# Experiments:
# Assay in all cases: SPR; Biacore T200; His-tagged receptors captured on an anti-histidine antibody CM5 chip (1-5 ug/mL, 30 uL/min); five concentrations (1:2 serial dilutions) of the PVR-Fc constructs flowed over, single-cycle kinetics; HBS-EP (20 mM HEPES pH 7.4, 150 mM NaCl, 0.005% Tween-20, 3.4 mM EDTA); 1:1 Langmuir model
# [1] = target: T1, recombinant mouse CD226-his
# [2] = target: T2, recombinant mouse CD96-his
# [3] = target: T3, recombinant mouse TIGIT-Fc-his
Molecule,Kd [1],koff [1],kon [1],Kd [2],koff [2],kon [2],Kd [3],kon [3],Kd ([1]; both partners purified),koff ([1]; both partners purified),kon ([1]; both partners purified),Kd ([2]; both partners purified),koff ([2]; both partners purified),kon ([2]; both partners purified),Kd ([3]; both partners purified),koff ([3]; both partners purified),kon ([3]; both partners purified)
full length PVR-Fc (full-length mouse PVR ECD-Fc) (Fc fusion),0.83 nM,0.00651 s⁻¹,3.2e+06 M⁻¹ s⁻¹,4.07 nM,0.00455 s⁻¹,1.17e+06 M⁻¹ s⁻¹,2.26 nM,2.25e+07 M⁻¹ s⁻¹,,,,,,,,,
B1,,,,,,,,,0.69 nM,0.00184 s⁻¹,2.67e+06 M⁻¹ s⁻¹,1.72 nM,0.00286 s⁻¹,3.52e+06 M⁻¹ s⁻¹,2.25 nM,0.0656 s⁻¹,2.92e+07 M⁻¹ s⁻¹
